Data: patent EP4700040A1 (Shenzhen Loggene Life Science & Technology Co., Ltd., dated 2024)
Where a chain is given by its changes, count along the chain named. Read-outs that look alike come from different tables or passages of the source. Each block holds one binder with its values, some of them ahead of it.

Experiments:
[1] = target: T1, Recombinant human IL6 protein with C-terminal six-histidine tag (human, UniProt P05231 29-212); test: homogeneous split-luciferase sandwich with RB073-449-1, signal rises with IL6
T1 construct: also called human interleukin 6

[2] = target: T1, Recombinant human IL6 protein with …; test: homogeneous split-luciferase sandwich with OL-453, signal rises with IL6
[3] = target: Large subunit-rSCFV5 fusion protein; test: cell-based or functional assay
[4] = target: Large subunit-rSCFV5 fusion protein; test: cell-based or functional assay; remark: listed apart in the source
[5] = target: Large subunit-rSCFV5 fusion protein; test: cell-based or functional assay; remark: listed apart in the source
[6] = target: Large subunit-rSCFV5 fusion protein; test: cell-based or functional assay; remark: listed apart in the source
[7] = target: Large subunit-rSCFV5 fusion protein; test: cell-based or functional assay; remark: listed apart in the source

B1: fusion protein OL-453 of the large subunit with human IL6 SCFV antibody 453 (other)
chain: VFTLEDFVGDWEQTAAYNLDQVLEQGGVSSLLQNLAVSVTPIQRIVRSGENALKIDIHVIIPYEGLSADQMAQIEEVFKVVYPVDDHHFKVILPYGTLVIDGVTPNMLNYFGRPYEGIAVFDGKKITVTGTLWNGNKIIDERLITPDGSMLFRVTINSGSSGGGGSGGGGSGGQAVLTQPSSVSKSLGQSVSITCSGSNIGSSAVGWYQQLPGSGLKTIIYSTSSRPSGVPDRFSGSKSGNTATLTISSLQAEDEADYYCATGDRGNYGGVFGSGTRLTVLSSGGGGSGGGGGGSSRSSQVQLQESGPSLVKPSQTLSLTCTVSGFSLTSYGVGWVRQAPGKTPEWLGGIDRDGDMSYNPALKSRLSITRDTSKSQVSLSLRSVATEDTAVYYCARSSYDSHYYGDYYDVDVWGRGLLVTVSSGQAGHHHHHH
notes: also called large subunit fusion protein OL-453
binding result [1]: binds

B2: fusion protein RB073-449-1 of the small subunit peptide RB073 with human IL6 SCFV antibody 449-1 (other)
chain: VEGYRLFDRKSGGGGSGGGGSGGGGSQSALTQPSSVSKSLGQSVSITCSGSSSNVGYGNYVSWYQQVPGSAPKFLIYGATSRASGVPARFSGSRSGNTATLSISSLQAEDEADYYCASYDSSSYGVFGSGTTLTVLSSGGGGSGGGGGGSSRSSQVRLQESGPSLVKPSQTLSLTCTVSGFSLTNYPVGWVRQAPGKALEWLGGISSGGGTAYNPALKSRLSFTRDTSKNQVSLSLSSVTSEDTAVYYCTRGNGDYVLRYGADVWGRGLLVTVSSGSGHHHHHH
notes: also called small subunit fusion protein RB073-449-1
binding result [2]: binds

The remaining lines, values ahead:

Signal-to-noise ratio [3]: 12.2
Signal-to-noise ratio at 1000 pg/ml [4]: 3.8
Signal-to-noise ratio at 1000 pg/ml [5]: 1.44
Signal-to-noise ratio [6]: 1.9
Signal-to-noise ratio at 1000 pg/ml [7]: 3.8
B3: rSCFV18-small subunit P114 fusion protein (other)
chain: AHHHHHHGSGDIVLTQTPSPVSAAVGGTVSINCQSSQSVYKNNRLSWYQQKPGQPPKFLIYDTSKLASGVPSRFSGSGSGTQFTLTISDLECDDAATYYCAGGYSNNIGAFGGGTEVVVKSSGGGGSGGGGGGSSRSSQSLEESRGRLVTPGGSLTLTCSVSGFSLSIYNMGWVRQAPGEGLEWIGVIGSSGNTYYASWAKGRFTISRNTNDNTVDLKITSPTTGDTATYFCARGFSSFDIWGPGTLVTVSSGGGGSGGGGSGGGGSVTGYRLFEEIL

Signal-to-noise ratio [3]: 48
Signal-to-noise ratio at 1000 pg/ml [4]: 14.5
Signal-to-noise ratio at 1000 pg/ml [5]: 38.9
B4: rSCFV18-RB073 fusion protein (other)
chain: B3 chain with T269E, E275D, E276R, I277K, L278S
